B4: carcinoembryonic antigen (CEA) immunopurified from LS174T colon carcinoma cell lysate (ligand, human, UniProt P06731 35-685, looked up)
chain: KLTIESTPFNVAEGKEVLLLVHNLPQHLFGYSWYKGERVDGNRQIIGYVIGTQQATPGPAYSGREIIYPNASLLIQNIIQNDTGFYTLHVIKSDLVNEEATGQFRVYPELPKPSISSNNSKPVEDKDAVAFTCEPETQDATYLWWVNNQSLPVSPRLQLSNGNRTLTLFNVTRNDTASYKCETQNPVSARRSDSVILNVLYGPDAPTISPLNTSYRSGENLNLSCHAASNPPAQYSWFVNGTFQQSTQELFIPNITVNNSGSYTCQAHNSDTGLNRTTVTTITVYAEPPKPFITSNNSNPVEDEDAVALTCEPEIQNTTYLWWVNNQSLPVSPRLQLSNDNRTLTLLSVTRNDVGPYECGIQNELSVDHSDPVILNVLYGPDDPTISPSYTYYRPGVNLSLSCHAASNPPAQYSWLIDGNIQQHTQELFISNITEKNSGLYTCQANNSASGHSRTTVKTITVSAELPKPSISSNNSKPVEDKDAVAFTCEPEAQNTTYLWWVNGQSLPVSPRLQLSNGNRTLTLFNVTRNDARAYVCGIQNSVSANRSDPVTLDVLYGPDTPIISPPDSSYLSGANLNLSCHSASNPSPQYSWRINGIPQQHTQVLFIAKITPNNNGTYACFVSNLATGRNNSIVKSITVSASGTSPGLSA
modifications: sialofucosylated (HECA-452-reactive) O-linked glycans
notes: mature; One entry for CEA from wild-type and from CD44-knockdown LS174T cells; Used as blot band or adsorbed on microspheres; also called CD66e; CEACAM5

For experiment [1], the target named is E-selectin-IgG Fc chimera (human) (UniProt P16581). The experiment can be described thus: flow-based adhesion assay, sialidase-treated against untreated PCLP-coated microbeads on 10 µg/ml E-selectin at 1 dyn/cm2.
The target in experiment [2] is T1, CD66c immunopurified from LS174T colon carcinoma cell lysate (human, UniProt P40199 35-320).
T1 construct: mature; Blot band or adsorbed on microspheres
T1 sequence (looked up): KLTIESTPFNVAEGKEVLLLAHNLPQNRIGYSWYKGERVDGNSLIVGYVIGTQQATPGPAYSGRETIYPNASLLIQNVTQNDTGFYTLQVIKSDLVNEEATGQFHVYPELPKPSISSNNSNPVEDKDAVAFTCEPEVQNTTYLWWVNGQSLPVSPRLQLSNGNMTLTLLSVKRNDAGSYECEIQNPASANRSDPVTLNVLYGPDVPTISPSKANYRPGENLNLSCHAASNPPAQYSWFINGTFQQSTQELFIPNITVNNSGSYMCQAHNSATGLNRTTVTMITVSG
Put plainly: cell-free flow-based adhesion assay, CD66c-coated microspheres.

The target of experiment [3] is B4. Put plainly: blot rolling assay with human peripheral blood lymphocytes at 0.5 dyn/cm2. The text has this:
FIGS. 6A-6B provides the Western blot results from CD66e experiments. […] B: Selectin-dependent adhesion to SDS-PAGE resolved and blotted CEA immunoprecipitated from CD44-knockdown LS174T whole cell lysate. CHO-E cells, lymphocytes or CHO-P cells were perfused at the wall shear stress level of 0.5 dyn/cm² over SDS-PAGE immunoblots of immunopurified CD66e from whole cell lysate of CD44-knockdown LSI 74T cells. In select experiments, CHO-E cells and lymphocytes were pre-treated with an anti-E-selectin or an anti-L-selectin function blocking mAb (20 μg/ml), respectively, before use in blot rolling assays. The saturating concentration of the mAb (20 μg/ml) was maintained in the perfusion assays. Data represent the mean±S.E. of n≧3 experiments.
Fuhlbrigge et al., I 68 J. IMMUNOL. 5645-5651 (2002). The blots were placed under a parallel-plate flow chamber, and human peripheral blood lymphocytes or CHO transfectants, re-suspended at 5×10⁶ cells/ml in 90% D-PBS/I 0% glycerol, were perfused at the shear stress of 0.5 dyn/cm². Hanley et al., 20 FASEB J. 337-339 (2006); Napier et al., 282 J. BIOL. CHEM. 3433-3441 (2007); and Thomas et al., 283 J BIOL CHEM 15647-15655 (2008). Molecular weight markers were used as guides to aid placement of the flow chamber over stained bands of interest. […] Non-specific adhesion was assessed by perfusing 5 mM EDTA in the flow medium.

In experiment [4] the target is B4. Put plainly: cell-free flow-based adhesion assay, CEA-coated microspheres. The text has this:
A cell-free flow-based adhesion assay (Hanley, et al., 20(2) FASEB J. 20(2), 337-339 (2006); Napier, et al., 282(6) J. BIOL. CHEM. 3433-3441 (2007)) was used to compare the adhesion of microspheres coated with CEA immunopurified from wildtype versus CD44-knockdown LS174T colon carcinoma cells to selectin substrates in shear flow. This technique allows quantitative comparisons of CEA-mediated adhesion to selectin substrates at prescribed CEA and selectin site densities under physiological flow conditions.
To test this hypothesis, the CEA-coated microspheres were perfused over purified selectin substrates under prescribed wall shear stress levels. As expected from blot rolling assays, microspheres coated with CEA from either cell type were capable of tethering and rolling over E- and L-, but not P-, selectin substrates, albeit with varying efficiencies (FIG. 8C-E). Most importantly, the extent of tethering of CD44-knockdown LS174T CEA-coated microspheres to E-selectin was lower than that of microspheres decorated with CEA from wildtype LS174T cells (FIG. 8C). […] In contrast, no difference was detected in either the extent of tethering (FIG. 8C) or the average rolling velocities (FIG. 8E) of microspheres coated with CEA from either cell type over L-selectin.

The target of experiment [5] is T2, P-selectin on CHO cells stably transfected with the phosphatidylinositol glycan-linked extracellular domain … (UniProt P16109 42-771, limits assumed, phosphatidylinositol glycan-linked).
T2 construct: extracellular domain; also called P-selectin-expressing CHO cells
T2 sequence (looked up): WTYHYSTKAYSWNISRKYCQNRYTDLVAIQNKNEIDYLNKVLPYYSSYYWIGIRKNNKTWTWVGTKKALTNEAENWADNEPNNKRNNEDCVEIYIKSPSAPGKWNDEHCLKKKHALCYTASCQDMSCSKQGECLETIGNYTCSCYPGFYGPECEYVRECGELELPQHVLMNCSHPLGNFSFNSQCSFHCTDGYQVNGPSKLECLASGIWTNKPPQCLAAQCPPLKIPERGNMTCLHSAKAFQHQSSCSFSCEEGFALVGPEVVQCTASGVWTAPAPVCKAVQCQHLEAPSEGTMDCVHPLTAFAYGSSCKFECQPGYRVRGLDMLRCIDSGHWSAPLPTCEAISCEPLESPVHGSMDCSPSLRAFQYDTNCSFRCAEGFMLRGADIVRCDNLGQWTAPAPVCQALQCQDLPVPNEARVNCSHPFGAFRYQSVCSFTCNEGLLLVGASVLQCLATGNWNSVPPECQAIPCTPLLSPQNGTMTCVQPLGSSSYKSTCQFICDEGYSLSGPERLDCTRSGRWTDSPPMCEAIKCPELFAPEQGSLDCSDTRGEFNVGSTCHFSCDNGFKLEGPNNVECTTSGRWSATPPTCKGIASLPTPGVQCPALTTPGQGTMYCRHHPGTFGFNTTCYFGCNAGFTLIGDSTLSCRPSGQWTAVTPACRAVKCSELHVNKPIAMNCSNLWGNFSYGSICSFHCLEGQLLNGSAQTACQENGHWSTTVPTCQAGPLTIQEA
The experiment can be described thus: blot rolling assay: CHO-P cells perfused at 0.5 dyn/cm2 over blot of immunopurified CEA. The method, then:
In select experiments, CHO-E cells and lymphocytes were pre-treated with an anti-E-selectin or an anti-L-selectin function blocking mAb (20 μg/ml), respectively, before use in blot rolling assays. The saturating concentration of the mAb (20 μg/ml) was maintained in the perfusion assays. Data represent the mean±S.E. of n≧3 experiments.
Fuhlbrigge et al., I 68 J. IMMUNOL. 5645-5651 (2002). The blots were placed under a parallel-plate flow chamber, and human peripheral blood lymphocytes or CHO transfectants, re-suspended at 5×10⁶ cells/ml in 90% D-PBS/I 0% glycerol, were perfused at the shear stress of 0.5 dyn/cm². Hanley et al., 20 FASEB J. 337-339 (2006); Napier et al., 282 J. BIOL. CHEM. […] Non-specific adhesion was assessed by perfusing 5 mM EDTA in the flow medium.
Although previous studies have reported that CEA and CEA-family members such as CD66c (Kuijpers, et al., 118(2) J CELL BIOL. 457-466 (1992)) bind E-selectin under static/no-flow conditions, the capacity of CEA to interact with E-selectin under physiologically relevant flow conditions as well as its potential cross-reactivity with L- and P-selectin have yet to be examined. […] The specificity of these adhesive interactions was assessed by incubating CHO-E cell suspensions or lymphocytes with an anti-E-selectin or an anti-L-selectin function-blocking mAb, respectively (FIG. 6B).

In experiment [1], “podocalyxin-like protein (PCLP) immunopurified from LS174T colon carcinoma cell lysate (from UniProt O00592 23-558) (ligand)” yielded a reduction of binding after sialidase treatment of 80%.

B1: E-selectin-IgG Fc chimera (Fc fusion, human, UniProt P16581 22-301, looked up)
chain: WSYNTSTEAMTYDEASAYCQQRYTHLVAIQNKEEIEYLNSILSYSPSYYWIGIRKVNNVWVWVGTQKPLTEEAKNWAPGEPNNRQKDEDCVEIYIKREKDVGMWNDERCSKKKLALCYTAACTNTSCSGHGECVETINNYTCKCDPGFSGLKCEQIVNCTALESPEHGSLVCSHPLGNFSYNSSCSISCDRGYLPSSMETMQCMSSGEWSAPIPACNVVECDAVTNPANGFVECFQNPGSFPWNTTCTFDCEEGFELMGAQSLQCTSSGNWDNEKPTCKA
notes: domain: lectin, epidermal growth factor and consensus repeat domains; From Wyeth External Research; immobilised on dishes (10 µg/ml for microbeads, 0.75 µg/ml for cells); also called chimeric form of E-selectin-IgG Fc; not shown: human IgG1 (printed 'IgGi'); selectin domains linked to each arm of the IgG
As for B1, the binding result in experiment [2] is reported as “no binding”.

B2: L-selectin on human peripheral blood lymphocytes (receptor, UniProt P14151 39-372, looked up)
chain: WTYHYSEKPMNWQRARRFCRDNYTDLVAIQNKAEIEYLEKTLPFSRSYYWIGIRKIGGIWTWVGTNKSLTEEAENWGDGEPNNKKNKEDCVEIYIKRNKDAGKWNDDACHKLKAALCYTASCQPWSCSGHGECVEIINNYTCNCDVGYYGPQCQFVIQCEPLEAPELGTMDCTHPLGNFSFSSQCAFSCSEGTNLTGIEETTCGPFGNWSSPEPTCQVIQCEPLSAPDLGIMNCSHPLASFSFTSACTFICSEGTELIGKKKTICESSGIWSNPSPICQKLDKSFSMIKEGDYNPLFIPVAVMVTAFSGLAFIIWLARRLKKGKKSKRSMNDPY
notes: whole, on cells; also called Lymphocyte (L-selectin); L-selectin-expressing human peripheral blood lymphocytes
B2: in experiment [3], the binding result is listed as “binds”.

B3: P-selectin-IgG Fc chimera (Fc fusion, human, UniProt P16109 42-321, looked up)
chain: WTYHYSTKAYSWNISRKYCQNRYTDLVAIQNKNEIDYLNKVLPYYSSYYWIGIRKNNKTWTWVGTKKALTNEAENWADNEPNNKRNNEDCVEIYIKSPSAPGKWNDEHCLKKKHALCYTASCQDMSCSKQGECLETIGNYTCSCYPGFYGPECEYVRECGELELPQHVLMNCSHPLGNFSFNSQCSFHCTDGYQVNGPSKLECLASGIWTNKPPQCLAAQCPPLKIPERGNMTCLHSAKAFQHQSSCSFSCEEGFALVGPEVVQCTASGVWTAPAPVCKA
notes: domain: lectin, epidermal growth factor and consensus repeat domains; From Wyeth External Research; immobilised on dishes; also called chimeric form of P-selectin-IgG Fc; not shown: human IgG1 (printed 'IgGi'); selectin domains linked to each arm of the IgG
As to B3, in experiment [4], the binding result is given as “no binding (tested: 10 µg/ml P-selectin coating)”. Take B4: the binding result in experiment [5] is “no binding”.
